Data published in publication PMC8666006 (Cancer cell, 2020).
Blank lines part the entries; values can stand above or below the binder they belong to.

Biological target: MutLα (MLH1-PMS2) (human, UniProt P40692 1-756; P54278 1-862)
Test: co-IP

Sequence of MutLα (MLH1-PMS2) (P40692 whole entry, chain 1 of 2): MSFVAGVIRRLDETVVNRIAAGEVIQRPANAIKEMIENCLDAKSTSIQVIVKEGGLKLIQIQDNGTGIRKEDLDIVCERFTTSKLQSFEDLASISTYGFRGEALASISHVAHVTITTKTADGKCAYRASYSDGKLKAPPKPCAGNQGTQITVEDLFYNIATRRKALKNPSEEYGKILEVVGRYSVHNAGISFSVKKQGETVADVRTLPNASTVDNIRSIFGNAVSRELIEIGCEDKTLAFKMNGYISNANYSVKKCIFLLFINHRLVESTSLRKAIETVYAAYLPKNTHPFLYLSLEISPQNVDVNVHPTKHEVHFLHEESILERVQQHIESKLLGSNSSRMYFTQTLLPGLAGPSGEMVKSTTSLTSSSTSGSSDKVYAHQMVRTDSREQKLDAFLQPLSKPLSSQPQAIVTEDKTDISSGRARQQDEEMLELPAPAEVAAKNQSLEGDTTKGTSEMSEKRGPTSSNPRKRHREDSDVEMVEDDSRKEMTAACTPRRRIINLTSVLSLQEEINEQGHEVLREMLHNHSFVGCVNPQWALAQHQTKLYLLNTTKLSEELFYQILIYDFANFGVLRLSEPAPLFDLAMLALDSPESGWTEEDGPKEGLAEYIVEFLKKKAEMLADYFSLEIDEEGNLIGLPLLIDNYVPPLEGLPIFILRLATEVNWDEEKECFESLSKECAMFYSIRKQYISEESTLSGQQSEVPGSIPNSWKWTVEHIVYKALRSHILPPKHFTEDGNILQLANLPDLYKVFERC
Sequence of MutLα (MLH1-PMS2) (P54278 whole entry, chain 2 of 2): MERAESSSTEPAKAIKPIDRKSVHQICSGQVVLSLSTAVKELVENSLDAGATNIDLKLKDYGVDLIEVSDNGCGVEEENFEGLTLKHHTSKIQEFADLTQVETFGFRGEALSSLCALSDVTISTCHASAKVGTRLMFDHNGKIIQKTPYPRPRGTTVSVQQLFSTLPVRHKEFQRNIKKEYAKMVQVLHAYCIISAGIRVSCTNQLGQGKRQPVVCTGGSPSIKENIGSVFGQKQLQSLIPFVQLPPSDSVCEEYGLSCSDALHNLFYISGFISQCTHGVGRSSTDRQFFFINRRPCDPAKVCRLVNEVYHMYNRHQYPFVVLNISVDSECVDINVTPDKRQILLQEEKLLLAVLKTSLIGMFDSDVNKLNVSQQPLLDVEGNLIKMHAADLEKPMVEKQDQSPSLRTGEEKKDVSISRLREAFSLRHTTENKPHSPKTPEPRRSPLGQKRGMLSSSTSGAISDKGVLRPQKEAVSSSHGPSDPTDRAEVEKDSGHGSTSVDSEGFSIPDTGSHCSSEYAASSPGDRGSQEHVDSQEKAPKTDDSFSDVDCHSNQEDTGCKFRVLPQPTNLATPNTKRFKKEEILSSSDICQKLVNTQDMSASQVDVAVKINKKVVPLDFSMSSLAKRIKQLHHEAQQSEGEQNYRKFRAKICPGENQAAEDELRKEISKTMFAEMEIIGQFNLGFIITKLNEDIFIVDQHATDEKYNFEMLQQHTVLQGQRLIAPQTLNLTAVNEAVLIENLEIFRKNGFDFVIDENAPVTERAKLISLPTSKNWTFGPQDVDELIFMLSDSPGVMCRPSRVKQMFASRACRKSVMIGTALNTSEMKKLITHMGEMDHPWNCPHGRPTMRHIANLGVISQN

- binding result: binds
B1: Exo1-ΔC (domain or fragment, human, UniProt Q9UQ84 1-602, looked up)
chain: MGIQGLLQFIKEASEPIHVRKYKGQVVAVDTYCWLHKGAIACAEKLAKGEPTDRYVGFCMKFVNMLLSHGIKPILVFDGCTLPSKKEVERSRRERRQANLLKGKQLLREGKVSEARECFTRSINITHAMAHKVIKAARSQGVDCLVAPYEADAQLAYLNKAGIVQAIITEDSDLLAFGCKKVILKMDQFGNGLEIDQARLGMCRQLGDVFTEEKFRYMCILSGCDYLSSLRGIGLAKACKVLRLANNPDIVKVIKKIGHYLKMNITVPEDYINGFIRANNTFLYQLVFDPIKRKLIPLNAYEDDVDPETLSYAGQYVDDSIALQIALGNKDINTFEQIDDYNPDTAMPAHSRSHSWDDKTCQKSANVSSIWHRNYSPRPESGTVSDAPQLKENPSTVGVERVISTKGLNLPRKSSIVKRPRSAELSEDDLLSQYSLSFTKKTKKNSSEGNKSLSFSEVFVPDLVNGPTNKKSVSTPPRTRNKFATFLQRKNEESGAVVVPGTRSRFFCSSDSTDCVSNKVSIQPLDETAVTDKENNLHESEYGDQEGKRLVDTDVARNSSDDIPNNHIPGDHIPDKATVFTDEESYSFESSKFTRTISPPTL

- binding result: binds
B2: Exo1-FF-AA (enzyme, human, UniProt Q9UQ84 1-846, looked up)
chain: MGIQGLLQFIKEASEPIHVRKYKGQVVAVDTYCWLHKGAIACAEKLAKGEPTDRYVGFCMKFVNMLLSHGIKPILVFDGCTLPSKKEVERSRRERRQANLLKGKQLLREGKVSEARECFTRSINITHAMAHKVIKAARSQGVDCLVAPYEADAQLAYLNKAGIVQAIITEDSDLLAFGCKKVILKMDQFGNGLEIDQARLGMCRQLGDVFTEEKFRYMCILSGCDYLSSLRGIGLAKACKVLRLANNPDIVKVIKKIGHYLKMNITVPEDYINGFIRANNTFLYQLVFDPIKRKLIPLNAYEDDVDPETLSYAGQYVDDSIALQIALGNKDINTFEQIDDYNPDTAMPAHSRSHSWDDKTCQKSANVSSIWHRNYSPRPESGTVSDAPQLKENPSTVGVERVISTKGLNLPRKSSIVKRPRSAELSEDDLLSQYSLSFTKKTKKNSSEGNKSLSFSEVFVPDLVNGPTNKKSVSTPPRTRNKFATFLQRKNEESGAVVVPGTRSRAACSSDSTDCVSNKVSIQPLDETAVTDKENNLHESEYGDQEGKRLVDTDVARNSSDDIPNNHIPGDHIPDKATVFTDEESYSFESSKFTRTISPPTLGTLRSCFSWSGGLGDFSRTPSPSPSTALQQFRRKSDSPTSLPENNMSDVSQLKSEESSDDESHPLREEACSSQSQESGEFSLQSSNASKLSQCSSKDSDSEESDCNIKLLDSQSDQTSKLRLSHFSKKDTPLRNKVPGLYKSSSADSLSTTKIKPLGPARASGLSKKPASIQKRKHHNAENKPGLQIKLNELWKNFGFKKDSEKLPPCKKPLSPVRDNIQLTPEAEEDIFNKPECGRVQRAIFQ
